From patent US9279769B2, “Proteins that efficiently generate singlet oxygen” (The Regents of the University of California, priority 2010, dated 2016) come the findings set out here.

Values joined by “and” are separate entries in the source; they are usually repeats but may differ in a detail not shown here. Equal entries are not always repeated.

The test has as its system IFP1.4. In words: bleaching of fused IFP1.4 in E. coli colonies by blue light. The test is classed as cell-based. An excerpt:
In phototropin, the excited state energy of FMN is consumed to form a covalent bond with a cysteine. To divert this energy into ^1O2 generation, we carried out saturation mutagenesis of the relevant cysteine (Cys426) of the LOV2 domain of Arabidopsis thaliana phototropin 2 (AtPhot2). To screen for optimal ^1O2 production, these site-specific mutants were fused to an infrared fluorescent protein, IFP1.4, which is readily bleached by ^1O2 [21]. Colonies of E. coli expressing the fusion proteins were imaged in the IFP channel (ex 684/em 708 nm) before and after blue light (488 nm) illumination (FIG. 1A). […] The small side chain of the glycine residue may provide space around the cofactor that would allow O2 close apposition to FMN for efficient energy transfer.
[…] was synthesized by overlap extension PCR [48]. Genetic libraries were constructed by saturation and random mutagenesis and DNA shuffling. Mutants were fused to IFP1.4 by overlap extension PCR and cloned into a modified pBAD vector containing the heme oxygenase-1 gene from cyanobacteria. Libraries were expressed in E. coli strain TOP10 and screened by imaging the agar plates with colonies in the IFP channel before and after blue light illumination. Protein purification and spectroscopic characterization experiments were done as described.

B1: C426G (protein)
chain: MERPRAPPSPLNDAESLSERRSLEIFNPSSGKETHGSTSSSSKPPLDGNNKGSSSKWMEFQDSAKITERTAEWGLSAVKPDSGDDGISFKLSSEVERSKNMSRRSSEESTSSESGAFPRVSQELKTALSTLQQTFVVSDATQPHCPIVYASSGFFTMTGYSSKEIVGRNCRFLQGPDTDKNEVAKIRDCVKNGKSYCGRLLNYKKDGTPFWNLLTVTPIKDDQGNTIKFIGMQVEVSKYTEGVNDKALRPNGLSKSLIRYDARQKEKALDSITEVVQTIRHRKSQVQESVSNDTMVKPDSSTTPTPGRQTRQSDEASKSFRTPGRVSTPTGSKLKSSNNRHEDLLRMEPEELMLSTEVIGQRDSWDLSDRERDIRQGIDLATTLERIEKNFVISDPRLPDNPIIFASDSFLELTEYSREEILGRNGRFLQGPETDQATVQKIRDAIRDQREITVQLINYTKSGKKFWNLFHLQPMRDQKGELQYFIGVQLDGSDHVEPLQNRLSERTEMQSSKLVKATATNVDEAVRELPDANTRPEDLWAAHSKPVYPLPHNKESTSWKAIKKIQASGETVGLHHFKPIKPLGSGDTGSVHLVELKGTGELYAMKAMEKTMMLNRNKAHRACIEREIISLLDHPFLPTLYASFQTSTHVCLITDFCPGGELFALLDRQPMKILTEDSARFYAAEVVIGLEYLHCLGIVYRDLKPENILLKKDGHIVLADFDLSFMTTCTPQLIIPAAPSKRRRSKSQPLPTFVAEPSTQSNSFVGTEEYIAPEIITGAGHTSAIDWWALGILLYEMLYGRTPFRGKNRQKTFANILHKDLTFPSSIPVSLVGRQLINTLLNRDPSSRLGSKGGANEIKQHAFFRGINWPLIRGMSPPPLDAPLSIIEKDPNAKDIKWEDDGVLVNSTDLDIDLF
modifications: miniSOG polypeptide
Turning to B1, the “decrease of IFP fluorescence” value (blue light (488 nm) illumination) was −70%. Also, the “IFP1.4 brightness before irradiation” value (two colonies, fusion to IFP1.4) is 100 and 96. Besides, where the note is “two colonies, irradiation at 480/30 nm”, the “IFP1.4 brightness after irradiation” value is 27 and 28.
